Data reported in publication PMC8098473, “Structural basis of chitin utilization by a GH20 β-N-acetylglucosaminidase from Vibrio campbellii strain ATCC BAA-1116” (Acta Crystallographica. Section D, Structural Biology, 2021).

B1: VhGlcNAcase (Vibrio harveyi) (protein)
chain: MGGSEYRVDLVVLSEQKQNCRFGLTFHNLSDQDLNSWGLTFAFDRYILPDSVSNGQLTQIGSFCTLKPEGIVLAANHHYYCEFSIGSNPFRYYSDGFNEAMIDFVVDGQPQRAQVDVTPIVLASPYRERSDIPASLTHAQPLLPKPNHIEVSDHSFTFDEQAGVAIYTDLANSAKAWLLEELQRIHQFTLSSSNSGKIIFKSNPTLDEGAYKLKVSEESIKIEAGSSSGFTHACATLLQLLKRDEATKTMEAVCCSIIDSPRFRYRGMMLDCARHFHSVEQVKRLINLLAHYKLNTFHWHLTDDEGWRVEIKSLPQLTEIGAWRGIDETIEPQYTHLSQRYGGFYTQEEIRDVIAFAEQRGITIIPEIDVPGHCRAAIKSLPHLLIEAEDTTEYRSIQHYNDNVINPALPGSYEFIDKVLEEIAALFPAPYVHIGADEVPNGVWSKSPACQALMEQLGYTDYKELQGHFLRHAEDKLRKLGKRMLGWEEAQHGNKVSKDTVIYSWLSEEAALNCARQGFDVVLQPAQTTYLDMTQDYAPEEPGVDWANPLPLEKAYNYEPLAEVPADDPIRKRIWGIQTALWCEIINNPSRMDYMIFPRLTAMAEACWTEKQHRDWTDYLSRLKGHLPLLDLQGVNYRKPWK

How the values were obtained:
Conditions in all cases: 100 mM sodium phosphate pH 7.0, 37°C, 10 min, 0–500 µM substrate
[1] = tested on: CC(=O)N[C@H]1[C@H](Oc2ccc([N+](=O)[O-])cc2)O[C@H](CO)[C@@H](O)[C@@H]1O; test: purified protein; type: biochemical, Vibrio harveyi
[2] = molecular target: T1, VhGlcNAcase (Vibrio harveyi, UniProt D9ISE0, D437A); test: colorimetric 4-nitrophenol release at […] nm, Michaelis-Menten fit; type: biochemical
T1 construct: full-length nag2 (residues 1-642) plus C-terminal RSRS-His6 (10 extra residues), pQE-60, E. coli M15 (pREP4); 74 kDa expected, 76 kDa by SEC; monomer; EC 3.2.1.52

[3] = substrate: CC(=O)N[C@H]1[C@H](Oc2ccc([N+](=O)[O-])cc2)O[C@H](CO)[C@@H](O)[C@@H]1O; test: purified protein

| Molecule | Km [1] [µM] | kcat [1] [s⁻¹] | Km [2] [µM] | Km [3] [µM] |
| --- | --- | --- | --- | --- |
| VhGlcNAcase (Vibrio harveyi; D437N) | 339 ± 47 | 0.02 ± 0.001 |  |  |
| VhGlcNAcase (Vibrio harveyi; D532A) | 153 ± 9 | 1.6 ± 0.03 |  |  |
| VhGlcNAcase (Vibrio harveyi; D303N) | 325 ± 30 | 1.8 ± 0.08 |  |  |
| VhGlcNAcase (Vibrio harveyi; E438A) | 128 ± 16 | 0.11 ± 0.005 |  |  |
| VhGlcNAcase (Vibrio harveyi; D303A) | 302 ± 28 | 1.4 ± 0.07 |  |  |
| CC(=O)N[C@H]1[C@H](Oc2ccc([N+](=O)[O-])cc2)O[C@H](CO)[C@@H](O)[C@@H]1O [pNP-GlcNAc, 4-nitrophenyl N-acetyl-β-D-glucosaminide] |  |  | 390 ± 32 |  |
| VhGlcNAcase (Vibrio harveyi; H373A) | 307 ± 31 | 1.1 ± 0.06 |  |  |
| VhGlcNAcase (Vibrio harveyi; E438Q) | 120 ± 13 | 0.13 ± 0.005 |  |  |
| VhGlcNAcase (Vibrio harveyi; E584A) | 178 ± 20 | 18 ± 0.7 |  |  |
| B1 |  |  |  | 92 ± 6 |
